Measured values taken from paper PMC2874908.
Where two headings read alike, the source gives them in different places.

Legend:
[1] = target: β-catenin (endogenous, CHO cells) (Chinese hamster (endogenous in CHO)) (UniProt G3H996); assay: co-IP
[2] = target: β-catenin (endogenous, CHO cells) (Chinese hamster (endogenous in CHO)) (UniProt G3H996); assay: co-IP; remark: listed apart in the source

Work on “dynein (microtubule motor protein; endogenous, CHO cells) (complex)” yielded a fold change of dynein with β-catenin, V13 cells against E-cadherin cells [1] of 2 to 2.5 fold and a fold change of dynein with β-catenin, V13 cells against E-cadherin cells [2] of 3 fold.
